In PMC8119208 (JCI Insight, 2021):

Target: T1, GST-tagged PTP1B, full length (UniProt P18031 1-435)
T1 construct: protein tyrosine phosphatase PTP1B (PTPN1), full-length cDNA subcloned into pGEX-4T1; The cDNA probably comes from pJ3H PTP1B (Addgene 8601); also called GST-PTP1B; source: E. coli, purified (glutathione resin)
T1 sequence (looked up): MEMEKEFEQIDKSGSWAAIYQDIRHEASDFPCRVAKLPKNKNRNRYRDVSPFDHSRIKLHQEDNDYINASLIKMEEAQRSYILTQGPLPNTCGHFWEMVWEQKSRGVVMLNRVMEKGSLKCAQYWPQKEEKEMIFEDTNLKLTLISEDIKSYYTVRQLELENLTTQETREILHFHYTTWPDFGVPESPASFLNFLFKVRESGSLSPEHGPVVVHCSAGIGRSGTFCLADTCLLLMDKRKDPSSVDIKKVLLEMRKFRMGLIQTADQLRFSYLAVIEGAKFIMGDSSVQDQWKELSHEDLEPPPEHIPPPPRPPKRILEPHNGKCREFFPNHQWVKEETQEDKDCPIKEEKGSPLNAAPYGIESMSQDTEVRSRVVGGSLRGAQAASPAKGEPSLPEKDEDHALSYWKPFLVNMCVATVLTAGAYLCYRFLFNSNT
Assay: pull-down; GST pull-down with purified proteins from E. coli: His-PDL1-CT / MBP-PDL1-CT (0.5 μg) and 0.5 μg GST or GST-fusion proteins
Settings: both partners purified

- binding result: binds
B1: MBP-tagged PD-L1 cytoplasmic domain (domain or fragment, human, UniProt Q9NZQ7 262-290, looked up)
chain: RKGRMMDVKKCGIQDTNSKKQSDTHLEET
notes: PD-L1 cytoplasmic domain, human, amino acids 262-290, subcloned into pET-His6 (Addgene plasmid 29656; named in the acknowledgements as PET His6 MBP TEV LIC cloning vector); The results and legend call it MBP-PDL1-CT, the methods of the pull-down His-PDL1-CT; also called MBP-PDL1-CT; His-PDL1-CT; source: E. coli, purified (His resin)
